Experiment [1] addresses T1, 人OX40胞外区重组蛋白(OX40-His) (human, UniProt P43489 29-214).
T1 construct: extracellular domain; also called 人OX40重组蛋白(10481-H08H，北京义翘神州); 人OX40胞外区融合蛋白; not shown: His tag
T1 sequence (looked up): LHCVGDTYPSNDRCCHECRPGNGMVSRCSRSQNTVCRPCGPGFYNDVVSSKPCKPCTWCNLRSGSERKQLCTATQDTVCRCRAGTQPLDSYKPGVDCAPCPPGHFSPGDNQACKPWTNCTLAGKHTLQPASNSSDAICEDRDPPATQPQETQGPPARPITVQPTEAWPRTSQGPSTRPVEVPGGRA
Description: ELISA, OX40-His coated.

For experiment [2], the target named is T1, 人OX40胞外区重组蛋白(OX40-His). The experiment can be described thus: ELISA, OX40-His coated at 1 ug/mL, anti-human Fc-HRP detection. (In general: ELISA stands for enzyme-linked immunosorbent assay.)
Experiment [3] deals with T1, 人OX40胞外区重组蛋白(OX40-His). The experiment can be described thus: BLI (Octet QKe), antibody captured on AHC probe, antigen in solution, 1:1 Langmuir fit. (BLI is a label-free optical method that tracks binding on a fibre tip over time.)
For experiment [4], the target named is T2, 人PD-L1胞外区重组蛋白(PD-L1-His) (human, UniProt Q9NZQ7 19-238).
T2 construct: extracellular domain; also called 人PD-L1重组蛋白(10084-H08H，北京义翘神州); 人PD-L1胞外区融合蛋白; not shown: His tag
T2 sequence (Q9NZQ7 19-238): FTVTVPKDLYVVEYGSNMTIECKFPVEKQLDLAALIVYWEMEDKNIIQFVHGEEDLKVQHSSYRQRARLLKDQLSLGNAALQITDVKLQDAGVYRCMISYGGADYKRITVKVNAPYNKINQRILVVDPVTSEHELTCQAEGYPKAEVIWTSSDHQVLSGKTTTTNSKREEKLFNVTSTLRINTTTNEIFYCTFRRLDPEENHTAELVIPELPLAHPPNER
The description is as above.

A further experiment concerns the target T3, PD-L1-mFc (UniProt Q9NZQ7 19-238, limits assumed).
T3 construct: also called 重组PD-L1; not shown: mouse Fc (mFc)
The experiment can be described thus: competition ELISA: PD-1-hFc coated, PD-L1-mFc 1 ug/ml in solution, blocking of PD-L1 binding to PD-1.

The target in experiment [5] is T4, human OX40 on HT1080-hOX40 cells (human, UniProt P43489 29-277).
T4 sequence (looked up): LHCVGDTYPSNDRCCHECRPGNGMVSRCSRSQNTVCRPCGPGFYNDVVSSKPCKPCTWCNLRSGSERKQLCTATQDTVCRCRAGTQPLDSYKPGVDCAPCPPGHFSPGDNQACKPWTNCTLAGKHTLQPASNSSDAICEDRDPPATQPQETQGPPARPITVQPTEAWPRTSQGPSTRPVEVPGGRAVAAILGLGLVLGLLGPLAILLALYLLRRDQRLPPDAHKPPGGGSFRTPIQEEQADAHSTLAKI
The experiment can be described thus: cell-based or functional assay.

Experiment [6] addresses PD-L1 on CHO-PD-L1-CD3L cells (UniProt Q9NZQ7 19-290, limits assumed). Description: cell-based or functional assay.
Experiment [7] concerns the target T2, 人PD-L1胞外区重组蛋白(PD-L1-His). Description: ELISA, PD-L1-His coated at 1 ug/mL, anti-human Fc-HRP detection.

Chain of PD-L1 on CHO-PD-L1-CD3L cells (Q9NZQ7 19-290 limits assumed): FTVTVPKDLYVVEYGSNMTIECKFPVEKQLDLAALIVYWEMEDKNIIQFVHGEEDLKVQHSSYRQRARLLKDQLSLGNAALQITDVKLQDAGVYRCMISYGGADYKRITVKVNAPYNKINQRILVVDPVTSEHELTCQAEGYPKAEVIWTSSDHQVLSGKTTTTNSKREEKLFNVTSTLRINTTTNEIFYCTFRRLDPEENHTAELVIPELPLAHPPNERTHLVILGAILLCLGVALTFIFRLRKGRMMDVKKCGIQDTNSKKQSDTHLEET
T3 sequence (Q9NZQ7 19-238 limits assumed): as the sequence (Q9NZQ7 19-238) above

B1: 抗OX40人源化抗体hz25A7 (antibody, V domains shown)
VH: EVQLVESGGGLVQPGRSLRLSCAASGFTFSSHDMSWVRQAPGKGLELVAAINSEGGRIYYPDTMERRFTISRDNSKNTLYLQMNSLRAEDTAVYYCARHYDNYAWFAYWGQGTLVTVSS
VL: DIQMTQSPSSLSASVGDRVTITCRASKSVSTSGSSYIHWYQQKPGKAPKLLIYLASNLESGVPSRFSGSGSGTDFTLTISSLQPEDFATYYCQHSRELPLTFGGGTKVEIK
notes: Parental humanised anti-OX40 monoclonal antibody (from CN202010063141.3); also called 单抗hz25A7
Regarding B1, the binding result with 人OX40胞外区重组蛋白(OX40-His) [1] is “binds”.

B2: hz27G12-hzF2 (bispecific antibody, human IgG1, kappa)
heavy: not shown
light: EIVMTQSPATLSVSPGERATLSCKASQSVDYEGDSYMNWYQQKPGQAPKLLIYAASNLESGIPARFSGSGSGTDFTLTISSLEPEDFATYYCQQSNEDPYTFGGGTKVEIKRTVAAPSVFIFPPSDEQLKSGTASVVCLLNNFYPREAKVQWKVDNALQSGNSQESVTEQDSKDSTYSLSSTLTLSKADYEKHKVYACEVTHQGLSSPVTKSFNRGEC
notes: Symmetric four-chain molecule (two of peptide chain 1, two of peptide chain 2); expressed in HEK293, purified on Protein A; also called 抗PD-L1/OX40双特异性抗体 hz27G12-hzF2; OX40/PD-L1双特异性抗体
By EC50 is commonly meant the midpoint of the concentration-response curve. Higher therefore signals a less potent agent. The Kd is the concentration at which binding is half-saturated. One may read the IC50 as the concentration that gives 50% inhibition. Lower therefore signals inhibition by little substance. In the case of B2, the EC50 with 人OX40胞外区重组蛋白(OX40-His) [2] worked out at 0.0781 nM; with 人PD-L1胞外区重组蛋白(PD-L1-His) [7], 0.651 nM. Also, the figures for the Kd with 人OX40胞外区重组蛋白(OX40-His) [3] and with 人PD-L1胞外区重组蛋白(PD-L1-His) [4] were 8 nM and 1.3 nM, respectively. The molecule further returned an IC50 with PD-L1-mFc of 7.12 nM. In experiment [5], the “刺激HT1080-huOX40细胞表达IL8活性, EC50” value is 2.28 µg/mL. Also, in experiment [6], the “对PD-1/PD-L1信号通路的阻断活性 (Jurkat-PD1-NFAT / CHO-PD-L1-CD3L luciferase reporter), IC50” value was found to be 3.38 nM.

B3: hz25A7-hzF2 (bispecific antibody, human IgG1, kappa)
heavy: not shown
light: DIQMTQSPSSLSASVGDRVTITCRASKSVSTSGSSYIHWYQQKPGKAPKLLIYLASNLESGVPSRFSGSGSGTDFTLTISSLQPEDFATYYCQHSRELPLTFGGGTKVEIKRTVAAPSVFIFPPSDEQLKSGTASVVCLLNNFYPREAKVQWKVDNALQSGNSQESVTEQDSKDSTYSLSSTLTLSKADYEKHKVYACEVTHQGLSSPVTKSFNRGEC
notes: Symmetric four-chain molecule (two of peptide chain 1, two of peptide chain 2); expressed in HEK293, purified on Protein A; also called 抗PD-L1/OX40双特异性抗体 hz25A7-hzF2; OX40/PD-L1双特异性抗体
As to B3, the EC50 worked out at 0.0877 nM with 人OX40胞外区重组蛋白(OX40-His) [2] and 0.563 nM with 人PD-L1胞外区重组蛋白(PD-L1-His) [7]. Also, the Kd was 5 nM with 人OX40胞外区重组蛋白(OX40-His) [3] and 1 nM in the experiment with 人PD-L1胞外区重组蛋白(PD-L1-His) [4]. In the experiment with PD-L1-mFc, this molecule registered an IC50 of 6.84 nM. In addition, the “刺激HT1080-huOX40细胞表达IL8活性, EC50” value in experiment [5] worked out at 0.247 µg/mL. For the same molecule, in experiment [6], the “对PD-1/PD-L1信号通路的阻断活性 (Jurkat-PD1-NFAT / CHO-PD-L1-CD3L luciferase reporter), IC50” value is 4.75 nM.

B4: 抗OX40人源化抗体hz27G12 (antibody, V domains shown)
VH: EVQLVQSGAEVKKPGASVKVSCKASGYTFTEYIIHWVRQAPGQGLEWIGWFYPESGSIKYNEKFKDRVTITRDTSTSTVYMELSSLRSEDTAVYYCARHEDPITFAYWGQGTLVTVSS
VL: EIVMTQSPATLSVSPGERATLSCKASQSVDYEGDSYMNWYQQKPGQAPKLLIYAASNLESGIPARFSGSGSGTDFTLTISSLEPEDFATYYCQQSNEDPYTFGGGTKVEIK
notes: Parental humanised anti-OX40 monoclonal antibody (from CN202010063141.3); also called 单抗hz27G12
Turning to B4, the binding result with 人OX40胞外区重组蛋白(OX40-His) [1] is “binds”.

(Values after patent CN116355099A (BEIJING KENUO XINCHENG TECH CO LTD, dated 2023).)
